Assay results taken from patent US7592168B2, “Cephalosporin C acylase mutant and method for preparing 7-ACA using same” (Sandoz AG, priority 2003, dated 2009).

Assays:
[1] = Productivity of CPC acylase, pBC KS(+) plasmids in E. coli MC1061; conditions: E. coli MC1061, LB, 25° C., 48 hr, crude enzyme
Experimental: To compare the productivity of CPC acylase by pBCPC plasmid derived E. coli transformant with that by pBSEM plasmid derived E. coli transformant, a CPC acylase crude enzyme solution obtained from each E. coli transformant was prepared as follows. Each E. coli transformant was inoculated into 3 ml of a LB medium (1% Bacto-Tryptone, 0.5% Yeast Extract, 0.5% NaCl) containing 25 μg/ml of chloramphenicol and cultured at 30° C., 200 rpm for 16 hr with vigorous shaking. 50 μl of the culture solution was transformed to 50 ml of a new LB medium containing […] of chloramphenicol and further cultured at 25° C., 200 rpm for 48 hr with vigorous shaking. The culture solution was subjected to centrifugation at 4° C., 8,000 rpm for 10 min to separate a precipitate and the precipitate washed twice with 0.1 M Tris-HCl buffer solution (pH 8.0). This precipitate was suspended in 5 ml of the same buffer solution and subjected to ultra-sonication at 4° C. for 10 min. […]
The enzyme activity of CPC acylase mutant to CPC was measured according to the method described by Park et al. with minor modifications as follows (Park, et al., Kor. J. Appl. Microbiol. Biotechnol. 23: 559-564, 1995). […] After the reaction, the absorbance of reaction mixture was measured at 415 nm and quantified by comparing with a calibration curve of standard material. […] Meanwhile, the specific activity of CPC acylase mutant for CPC was determined by measuring the amount of protein remaining in the enzyme solution according to the method described by Bradford (Bradford, M., Anal. Biochem. 72: 248-254, 1976) and representing it as an active unit corresponding to 1 mg of protein. The reactivity of CPC acylase mutant to CPC was determined by the following steps of adding the same amount of protein to a reaction mixture, performing an enzyme reaction for a fixed time, measuring the amount of 7-ACA produced in the reaction mixture, and representing it as a relative value. […]

[2] = Matsuda et al. 1987; cited from earlier work
[3] = Reactivity to CPC (relative 7-ACA produced by the same amount of protein); format: biochemical; conditions: crude enzyme solution
Experimental: The enzyme activity of CPC acylase mutant to CPC was measured according to the method described by Park et al. with minor modifications as follows (Park, et al., Kor. J. Appl. Microbiol. Biotechnol. 23: 559-564, 1995). A substrate solution was prepared by dissolving CPC (purity 74.2%; CJ Corp., Korea) in 0.1 M Tris-HCl buffer solution (pH 8.0) at a concentration of 20 mg/ml and adjusting pH to 8 with 1 N NaOH. 20 μl of the CPC solution was mixed with 20 μl of the crude enzyme solution prepared above and the reaction mixture was incubated at 37° C. for 5 min. After the reaction, the mixture (200 μl) of 50 mM NaOH and 20% glacial acetic acid (1:2) was added thereto to stop the reaction. 200 μl of the supernatant recovered from the reaction mixture by centrifugation was mixed with 40 μl of 0.5% (w/v) PDAB (p-dimethylaminobenzaldehyde; Sigma, USA) dissolved in a methanol and the reaction mixture was incubated at 37° C. for 10 min. After the reaction, the absorbance of reaction mixture was measured at 415 nm and quantified by comparing with a calibration curve of standard material. […] Meanwhile, the specific activity of CPC acylase mutant for CPC was determined by measuring the amount of protein remaining in the enzyme solution according to the method described by Bradford (Bradford, M., Anal. Biochem. 72: 248-254, 1976) and representing it as an active unit corresponding to 1 mg of protein. […]

[4] = Optimal reaction temperature and pH to CPC; format: biochemical; conditions: purified mutant enzyme
Experimental: Further, as a result of examining the optimal reaction temperature and pH of the wild-type CPC acylase AcyII, the optimal reaction temperature and pH to CPC were 40° C. and 9.0, respectively.

[5] = Productivity of CPC acylase mutant, pET29 plasmids in E. coli BL21(DE3) with lactose; conditions: pET29-S12, E. coli BL21(DE3), 2% lactose, 25° C., 72 hr
Experimental: Each of pET29-TnS5αβ and pET29-S12 plasmids was transformed into E. coli BL21(DE3) by electrophoration to prepare the recombinant E. coli containing pET29-TnS5αβ and pET29-S12 plasmid, respectively, and the productivity of sixfold CPC acylase mutant in each recombinant E. coli was measured The TnS5αβ and S12 CPC acylase mutant gene in these recombinant plasmids was transcribed by the action of T7 promoter which is under the control of LacI operator existed on pET29-a(+) vector.
The recombinant E. coli containing pET-TnS5αβ plasmid was inoculated in […] of a LB broth containing 20 μg/ml of kanamycin and cultivated at 30° C., 200 rpm for 16 hr with vigorous shaking. […] The activity of sixfold CPC acylase mutant to CPC was measured using said crude enzyme solution according to the same method as described in Example <1-1-2>.
Further, the productivity of CPC acylase by S12 mutant enzyme in the E. coli BL21(DE3) transformant containing pET29-S12 recombinant plasmid was measured according to the same method as described above except that […] of a LB broth containing 20 μg/ml of kanamycin and 2% lactose was employed for a main cultivation and the E. coli transformant was cultured at 25° C., 200 rpm for 72 hr with vigorous shaking. […]

B1: Wild-type: Pseudomonas sp. SE83 derived wild-type CPC acylase (AcyII), α-subunit SEQ ID NO: 4 and β-subunit SEQ ID NO: 5, from pBCPC (protein)
alpha: TMAAKTDREALQAALPPLSGSLSIPGLSAPVRVQRDGWGIPHIKASGEADAYRALGFVHAQDRLFQMELTRRKALGRAAEWLGAEAAEADILVRRLGMEKVCRRDFEALGAEAKDMLRAYVAGVNAFLASGAPLPIEYGLLGAEPEPWEPWHSIAVMRRLGLLMGSVWFKLWRMLALPVVGAANALKLRYDDGGQDLLCIPPGVEAERLEADLAALRPAVDALLKAMGG
beta: SNNWAVAPGRTATGRPILAGDPHRVFEIPGMYAQHHLACDRFDMIGLTVPGVPGFPHFAHNGKVAYCVTHAFMDIHDLYLEQFAEDGRTARFGNEFEPVAWRRDRIAVRGGADREFDIVETRHGPVIAGDPLEGAALTLRSVQFAETDLSFDCLTRMPGASTVAQLYDATRGWGLIDHNLVAGDVAGSIGHLVRARVPSRPRENGWLPVPGWSGEHEWRGWIPHEAMPRVIDPPGGLIVTANNRVVADDHPDYLCTDCHPPYRAERIMERLVASPAFAVDDAAAIHADTLSPHVGLLRARLEALGIQGSLPAEELRQTLIAWDGRMDAGSQAASAYNAFRRALTRLVTARSGLEQAIAHPFAAVPPGVSPQGQVWWAVPTLLRNDDAGMLKGWSWDEALSEALSVATQNLTGRGWGEEHRPRFTHPLSAQFPAWAALLNPVSRPIGGDGDTVLANGLVPSAGPEATYGALSRYVFDVGNWDNSRWVVFHGASGHPASPHYADQNAPWSDCAMVPMLYSWDRIAAEAVTSQELVPA
modifications: Pseudomonas sp. SE83
[1]
  The productivity of CPC acylase (unit/l): about 97 unit/l
[1]; listed as pBCPC (wild-type)
  The productivity of CPC acylase (unit/l): 97 unit/l
[2]
  acylase activity to CPC as compared with GL-7-ACA: about 5%

B2: S12: sixfold CPC acylase mutant, α-subunit SEQ ID NO: 7 and β-subunit SEQ ID NO: 8 (protein)
alpha: TMAAKTDREALQAALPPLSGSLSIPGLSAPVRVQRDGWGIPHIKASGEADAYRALGFVHAQDRLFQMELTRRKALGRAAEWLGAEAAEADILVRRLGMEKVCRRDFEALGAEAKDMLRAYAAGVNAFLASGAPLPIEYSLLGAEPEPWEPWHSIAVMRRLGLLMGSVWFKLWRMLALPVVGAANALKLRYDDGGQDLLCIPPGVEAERLEADLAALRPAVDALLKAMGG
beta: SNNWAVAPGRTATGRPILAGDPHRVFEIPGMYAQHHLACDRFDMIGLTVPGVPGFPHNAHNGKVAYCVTHAFMDTHDLYLEQFAEDGRTARFGNEFEPVAWRRDRIAVRGGADREFDIVETRHGPVIAGDPLEGAALTLRSVQFAETDLSFDCLTRMPGASTVAQLYDATRGWGLVDHNLVAGDVAGSIGHLVRARVPSRPRENGWLPVPGWSGEHEWRGWIPHEAMPRVIDPPGGLIVTANNRVVADDHPDYLCTDCHPPYRAERIMERLVASPAFAVDDAAAIHADTLSPHVGLLRARLEALGIQGSLPAEELRQTLIAWDGRMDAGSQAASAYNAFRRALTRLVTARSGLEQAIAHPFAAVPPGVSPQGQVWWAVPTLLRNDDAGMLKGWSWDEALSEALSVATQNLTGRGWGEEHRPRFTHPLSAQFPAWAALLNPVSRPIGGDGDTVLANGLVPSAGPEATYGALCRYVFDVGNWDNSRWVVFHGASGHPASPHYADQNAPWSDCAMVPMLYSWDRIAAEAVTSQELVPA
modifications: alpha-subunit of mutatnt CPC acylase S12 protein; beta-subunit of mutatnt CPC acylase S12 protein
[3]
  reactivity to CPC (in words): higher than that of #76 mutant
[4]
  reaction feature (e.g., optimal temperature and pH) compared with wild-type: the same as the wild-type CPC acylase
[1]
  The productivity of CPC acylase (unit/l): 712 unit/l
[5]
  productivity of CPC acylase mutant: 1,207 unit/l
